The values that follow come from patent US20220229068A1, “DETECTION OF PROTEIN TO PROTEIN INTERACTIONS” (THE GOVERNING COUNCIL OF THE UNIVERSITY OF TORONTO, priority 2019, published 2022).

The target in assay [1] is T1, ARFIP2 (prey, CIC format) (human) (UniProt P53365).
T1 sequence (looked up): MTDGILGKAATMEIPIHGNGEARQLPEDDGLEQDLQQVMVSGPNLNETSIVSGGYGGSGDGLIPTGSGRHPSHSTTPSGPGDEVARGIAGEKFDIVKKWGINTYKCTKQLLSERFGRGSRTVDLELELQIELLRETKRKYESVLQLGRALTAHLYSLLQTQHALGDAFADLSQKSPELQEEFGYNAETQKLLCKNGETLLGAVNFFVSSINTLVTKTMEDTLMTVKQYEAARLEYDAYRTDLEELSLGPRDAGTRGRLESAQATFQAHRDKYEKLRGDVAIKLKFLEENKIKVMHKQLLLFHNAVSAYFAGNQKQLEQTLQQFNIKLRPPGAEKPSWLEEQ
Description: SIMPL ELISA, bait-IN/prey-CIC. (ELISA stands for enzyme-linked immunosorbent assay.)

The target of assay [2] is SKP2 (prey, CIC format) (human) (UniProt Q13309). Kind of assay: SIMPL ELISA, bait-IN/prey-CIC.
In assay [3] the target is PEX16 (prey, CIC format) (human) (UniProt Q9Y5Y5). Kind of assay: SIMPL ELISA, bait-IN/prey-CIC.
Chain of PEX16 (prey, CIC format) (human) (Q9Y5Y5 whole entry): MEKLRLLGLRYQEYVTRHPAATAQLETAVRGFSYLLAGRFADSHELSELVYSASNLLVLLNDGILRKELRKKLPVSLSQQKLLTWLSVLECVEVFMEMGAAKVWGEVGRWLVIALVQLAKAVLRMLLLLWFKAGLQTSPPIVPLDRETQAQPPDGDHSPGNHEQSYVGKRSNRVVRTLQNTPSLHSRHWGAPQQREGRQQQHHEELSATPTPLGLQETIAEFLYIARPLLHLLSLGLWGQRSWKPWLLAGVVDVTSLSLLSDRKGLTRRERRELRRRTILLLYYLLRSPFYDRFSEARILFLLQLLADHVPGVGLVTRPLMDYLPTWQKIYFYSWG
Assay [4] addresses RAD23A (prey, CIC format) (human) (UniProt P54725). Kind of assay: SIMPL ELISA, bait-IN/prey-CIC.
Assay [5] deals with RAP1A (prey, CIC format) (human) (UniProt P62834). Description: SIMPL ELISA, bait-IN/prey-CIC.
Chain of RAP1A (prey, CIC format) (human) (P62834 whole entry): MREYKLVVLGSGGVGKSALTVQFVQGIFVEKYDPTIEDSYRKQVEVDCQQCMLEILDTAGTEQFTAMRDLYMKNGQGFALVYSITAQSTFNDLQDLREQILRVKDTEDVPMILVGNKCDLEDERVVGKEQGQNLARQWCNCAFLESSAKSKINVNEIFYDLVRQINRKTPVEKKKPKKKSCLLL
Assay [6] has as its target CDK6 (prey, CIC format) (human) (UniProt Q00534). Kind of assay: SIMPL ELISA, bait-IN/prey-CIC.
Assay [7] has as its target CCNA1 (prey, CIC format) (human) (UniProt P78396). Description: SIMPL ELISA, bait-IN/prey-CIC.
For assay [8], the target named is T2, PEX11B (prey, CIC format) (human) (UniProt O96011).
T2 sequence (looked up): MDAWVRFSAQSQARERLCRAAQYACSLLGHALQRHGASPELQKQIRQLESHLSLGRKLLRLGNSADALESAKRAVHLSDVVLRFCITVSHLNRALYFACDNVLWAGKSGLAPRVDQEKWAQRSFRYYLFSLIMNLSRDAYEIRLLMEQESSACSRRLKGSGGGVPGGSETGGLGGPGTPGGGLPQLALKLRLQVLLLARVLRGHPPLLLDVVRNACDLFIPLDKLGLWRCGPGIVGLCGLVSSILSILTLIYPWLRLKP
Description: SIMPL ELISA, bait-IN/prey-CIC.

Assay [9] deals with T3, NRG1 (prey, CIC format) (human) (UniProt Q02297).
T3 sequence (looked up): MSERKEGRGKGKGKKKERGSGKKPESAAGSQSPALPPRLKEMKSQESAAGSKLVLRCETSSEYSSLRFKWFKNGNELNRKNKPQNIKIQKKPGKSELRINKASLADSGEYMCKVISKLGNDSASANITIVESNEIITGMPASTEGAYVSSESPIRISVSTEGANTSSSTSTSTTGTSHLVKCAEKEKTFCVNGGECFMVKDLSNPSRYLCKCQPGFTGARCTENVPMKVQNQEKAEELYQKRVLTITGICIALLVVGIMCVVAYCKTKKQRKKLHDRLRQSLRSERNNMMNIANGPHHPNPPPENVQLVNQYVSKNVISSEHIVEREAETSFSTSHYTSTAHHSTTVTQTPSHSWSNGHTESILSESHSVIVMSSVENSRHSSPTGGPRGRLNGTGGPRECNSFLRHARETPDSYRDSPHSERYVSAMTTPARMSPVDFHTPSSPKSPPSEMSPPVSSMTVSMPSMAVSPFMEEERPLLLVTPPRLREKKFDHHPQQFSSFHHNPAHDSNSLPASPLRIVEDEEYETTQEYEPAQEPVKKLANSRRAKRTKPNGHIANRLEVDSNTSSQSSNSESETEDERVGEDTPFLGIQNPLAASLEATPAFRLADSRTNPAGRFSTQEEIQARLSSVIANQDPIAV
Description: SIMPL ELISA, bait-IN/prey-CIC.

The target in assay [10] is FOS (prey, CIC format) (human) (UniProt P01100). Description: SIMPL ELISA, bait-IN/prey-CIC.
Chain of FOS (prey, CIC format) (human) (P01100 whole entry, canonical isoform): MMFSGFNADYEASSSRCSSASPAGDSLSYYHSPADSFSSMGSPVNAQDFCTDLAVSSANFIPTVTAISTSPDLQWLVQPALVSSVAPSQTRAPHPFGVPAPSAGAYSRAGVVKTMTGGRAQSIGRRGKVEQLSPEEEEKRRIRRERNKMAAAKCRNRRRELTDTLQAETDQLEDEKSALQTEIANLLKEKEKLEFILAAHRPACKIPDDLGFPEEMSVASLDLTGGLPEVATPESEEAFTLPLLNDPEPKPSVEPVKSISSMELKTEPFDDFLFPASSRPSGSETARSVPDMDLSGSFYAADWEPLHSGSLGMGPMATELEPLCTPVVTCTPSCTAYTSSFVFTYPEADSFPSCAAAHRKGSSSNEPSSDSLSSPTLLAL
The target in assay [11] is SKR-2 (C. elegans prey, IC format) (C. elegans). Description: SIMPL ELISA, C. elegans lysate, IN/IC; ratio of spliced signal to total signal.
Assay [12] has as its target SKR-2 (C. elegans prey, CIC format) (C. elegans). Description: SIMPL ELISA, C. elegans lysate, IN/CIC; ratio of spliced signal to total signal.
In assay [13] the target is FGFR1 (prey, CIC format) (human) (UniProt P11362). Kind of assay: SIMPL ELISA, bait-IN/prey-CIC.
Chain of FGFR1 (prey, CIC format) (human) (P11362 22-822 limits assumed): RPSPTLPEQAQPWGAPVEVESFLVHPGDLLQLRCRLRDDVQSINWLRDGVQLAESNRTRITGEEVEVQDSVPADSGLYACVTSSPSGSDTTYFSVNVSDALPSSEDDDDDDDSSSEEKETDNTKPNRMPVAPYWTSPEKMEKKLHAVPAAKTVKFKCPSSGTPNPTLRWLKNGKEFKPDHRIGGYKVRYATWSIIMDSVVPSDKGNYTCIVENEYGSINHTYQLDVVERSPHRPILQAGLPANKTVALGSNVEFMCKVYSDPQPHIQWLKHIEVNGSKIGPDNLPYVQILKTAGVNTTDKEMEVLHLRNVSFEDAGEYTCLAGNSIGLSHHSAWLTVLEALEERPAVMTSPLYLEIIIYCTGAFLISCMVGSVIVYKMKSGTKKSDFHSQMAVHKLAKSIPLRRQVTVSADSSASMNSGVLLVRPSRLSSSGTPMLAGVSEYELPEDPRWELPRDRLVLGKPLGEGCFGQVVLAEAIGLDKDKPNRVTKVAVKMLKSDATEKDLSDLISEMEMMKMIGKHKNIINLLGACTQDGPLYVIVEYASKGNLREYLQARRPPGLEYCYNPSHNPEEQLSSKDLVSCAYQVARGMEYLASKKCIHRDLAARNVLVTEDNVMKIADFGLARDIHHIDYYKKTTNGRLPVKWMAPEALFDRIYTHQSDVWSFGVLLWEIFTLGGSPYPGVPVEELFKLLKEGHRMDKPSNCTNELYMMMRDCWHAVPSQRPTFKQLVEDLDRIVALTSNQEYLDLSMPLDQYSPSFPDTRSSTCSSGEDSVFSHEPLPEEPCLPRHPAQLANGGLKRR
Assay [14] addresses T4, RB1 (prey, CIC format) (human) (UniProt P06400).
T4 sequence (looked up): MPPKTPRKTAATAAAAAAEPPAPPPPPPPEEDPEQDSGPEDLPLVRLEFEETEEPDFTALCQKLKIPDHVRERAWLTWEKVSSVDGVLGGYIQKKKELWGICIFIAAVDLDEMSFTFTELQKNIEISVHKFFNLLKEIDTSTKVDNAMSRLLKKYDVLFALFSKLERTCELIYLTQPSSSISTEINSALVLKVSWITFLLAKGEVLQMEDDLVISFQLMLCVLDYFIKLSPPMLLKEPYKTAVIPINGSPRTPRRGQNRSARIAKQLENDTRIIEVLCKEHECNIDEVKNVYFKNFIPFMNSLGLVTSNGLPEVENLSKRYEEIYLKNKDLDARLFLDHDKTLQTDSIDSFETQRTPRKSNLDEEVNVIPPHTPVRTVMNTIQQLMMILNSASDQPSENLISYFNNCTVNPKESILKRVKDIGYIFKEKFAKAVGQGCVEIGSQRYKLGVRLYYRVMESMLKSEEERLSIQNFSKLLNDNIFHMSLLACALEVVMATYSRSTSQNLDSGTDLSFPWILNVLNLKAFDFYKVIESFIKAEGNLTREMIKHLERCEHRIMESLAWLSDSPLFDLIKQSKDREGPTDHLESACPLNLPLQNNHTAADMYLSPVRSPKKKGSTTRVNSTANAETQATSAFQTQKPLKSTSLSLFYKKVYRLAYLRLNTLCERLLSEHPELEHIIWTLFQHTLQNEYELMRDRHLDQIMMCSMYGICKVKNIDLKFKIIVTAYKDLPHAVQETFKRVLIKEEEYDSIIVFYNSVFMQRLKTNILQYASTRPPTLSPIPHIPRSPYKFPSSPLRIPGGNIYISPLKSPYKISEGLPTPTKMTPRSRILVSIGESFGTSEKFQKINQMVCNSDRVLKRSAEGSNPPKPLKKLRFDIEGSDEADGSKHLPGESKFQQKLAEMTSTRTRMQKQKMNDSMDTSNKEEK
Kind of assay: SIMPL ELISA, bait-IN/prey-CIC.

Assay [15] has as its target NCK1 (prey, CIC format) (human) (UniProt P16333). Kind of assay: SIMPL ELISA, bait-IN/prey-CIC.
Assay [16] deals with NFE2L1 (prey, CIC format) (human) (UniProt Q14494). Kind of assay: SIMPL ELISA, bait-IN/prey-CIC.
Assay [17] deals with IGFBP4 (prey, CIC format) (human) (UniProt P22692). Description: SIMPL ELISA, bait-IN/prey-CIC.
Chain of IGFBP4 (prey, CIC format) (human) (P22692 22-258 limits assumed): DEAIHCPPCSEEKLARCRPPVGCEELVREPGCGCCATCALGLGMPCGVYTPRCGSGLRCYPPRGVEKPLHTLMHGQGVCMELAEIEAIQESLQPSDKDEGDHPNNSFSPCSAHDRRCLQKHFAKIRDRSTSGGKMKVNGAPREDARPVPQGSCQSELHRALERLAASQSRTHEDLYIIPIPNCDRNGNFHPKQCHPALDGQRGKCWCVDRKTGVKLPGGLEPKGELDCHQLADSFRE
The target in assay [18] is HSP90AA1 (prey, CIC format) (human) (UniProt P07900). Kind of assay: SIMPL ELISA, bait-IN/prey-CIC.
The target in assay [19] is RPA3 (prey, CIC format) (human) (UniProt P35244). Kind of assay: SIMPL ELISA, bait-IN/prey-CIC.
Chain of RPA3 (prey, CIC format) (human) (P35244 whole entry): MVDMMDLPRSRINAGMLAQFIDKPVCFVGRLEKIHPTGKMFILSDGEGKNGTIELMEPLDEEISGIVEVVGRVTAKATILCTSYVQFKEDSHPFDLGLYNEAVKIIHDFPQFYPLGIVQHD
For assay [20], the target named is HGS (prey, CIC format) (human) (UniProt O14964). Kind of assay: SIMPL ELISA, bait-IN/prey-CIC.
The target in assay [21] is SRC (prey, CIC format) (human) (UniProt P12931). Kind of assay: SIMPL ELISA, bait-IN/prey-CIC.
The target of assay [22] is T5, NOD1 (prey, CIC format) (human) (UniProt Q9Y239).
T5 sequence (looked up): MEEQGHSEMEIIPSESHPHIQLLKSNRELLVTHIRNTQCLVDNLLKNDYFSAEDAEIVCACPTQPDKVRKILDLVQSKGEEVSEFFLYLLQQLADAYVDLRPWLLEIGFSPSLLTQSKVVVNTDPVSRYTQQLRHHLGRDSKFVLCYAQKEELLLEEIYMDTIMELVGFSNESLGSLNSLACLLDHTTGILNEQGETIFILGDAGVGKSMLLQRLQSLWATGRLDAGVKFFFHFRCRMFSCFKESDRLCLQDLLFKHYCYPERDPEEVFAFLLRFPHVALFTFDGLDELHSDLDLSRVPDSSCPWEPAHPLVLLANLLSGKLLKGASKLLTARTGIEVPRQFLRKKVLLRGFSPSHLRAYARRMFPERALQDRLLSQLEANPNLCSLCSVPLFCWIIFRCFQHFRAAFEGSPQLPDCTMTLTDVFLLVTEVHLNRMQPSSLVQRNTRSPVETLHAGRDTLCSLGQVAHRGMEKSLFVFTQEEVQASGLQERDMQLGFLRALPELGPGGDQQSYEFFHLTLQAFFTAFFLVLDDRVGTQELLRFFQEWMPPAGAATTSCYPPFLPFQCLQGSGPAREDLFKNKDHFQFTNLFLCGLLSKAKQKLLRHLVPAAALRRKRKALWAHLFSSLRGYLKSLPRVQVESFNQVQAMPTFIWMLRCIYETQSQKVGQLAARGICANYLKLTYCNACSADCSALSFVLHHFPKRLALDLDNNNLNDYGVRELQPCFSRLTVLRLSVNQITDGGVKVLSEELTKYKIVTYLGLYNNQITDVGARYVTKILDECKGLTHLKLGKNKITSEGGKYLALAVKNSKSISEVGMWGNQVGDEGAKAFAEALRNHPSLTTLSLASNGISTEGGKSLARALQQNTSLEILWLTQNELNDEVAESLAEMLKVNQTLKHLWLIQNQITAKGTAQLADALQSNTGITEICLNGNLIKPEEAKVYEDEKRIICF
Description: SIMPL ELISA, bait-IN/prey-CIC.

For assay [23], the target named is PDGFRB (prey, CIC format) (human) (UniProt P09619). Kind of assay: SIMPL ELISA, bait-IN/prey-CIC.
Chain of PDGFRB (prey, CIC format) (human) (P09619 33-1106 limits assumed): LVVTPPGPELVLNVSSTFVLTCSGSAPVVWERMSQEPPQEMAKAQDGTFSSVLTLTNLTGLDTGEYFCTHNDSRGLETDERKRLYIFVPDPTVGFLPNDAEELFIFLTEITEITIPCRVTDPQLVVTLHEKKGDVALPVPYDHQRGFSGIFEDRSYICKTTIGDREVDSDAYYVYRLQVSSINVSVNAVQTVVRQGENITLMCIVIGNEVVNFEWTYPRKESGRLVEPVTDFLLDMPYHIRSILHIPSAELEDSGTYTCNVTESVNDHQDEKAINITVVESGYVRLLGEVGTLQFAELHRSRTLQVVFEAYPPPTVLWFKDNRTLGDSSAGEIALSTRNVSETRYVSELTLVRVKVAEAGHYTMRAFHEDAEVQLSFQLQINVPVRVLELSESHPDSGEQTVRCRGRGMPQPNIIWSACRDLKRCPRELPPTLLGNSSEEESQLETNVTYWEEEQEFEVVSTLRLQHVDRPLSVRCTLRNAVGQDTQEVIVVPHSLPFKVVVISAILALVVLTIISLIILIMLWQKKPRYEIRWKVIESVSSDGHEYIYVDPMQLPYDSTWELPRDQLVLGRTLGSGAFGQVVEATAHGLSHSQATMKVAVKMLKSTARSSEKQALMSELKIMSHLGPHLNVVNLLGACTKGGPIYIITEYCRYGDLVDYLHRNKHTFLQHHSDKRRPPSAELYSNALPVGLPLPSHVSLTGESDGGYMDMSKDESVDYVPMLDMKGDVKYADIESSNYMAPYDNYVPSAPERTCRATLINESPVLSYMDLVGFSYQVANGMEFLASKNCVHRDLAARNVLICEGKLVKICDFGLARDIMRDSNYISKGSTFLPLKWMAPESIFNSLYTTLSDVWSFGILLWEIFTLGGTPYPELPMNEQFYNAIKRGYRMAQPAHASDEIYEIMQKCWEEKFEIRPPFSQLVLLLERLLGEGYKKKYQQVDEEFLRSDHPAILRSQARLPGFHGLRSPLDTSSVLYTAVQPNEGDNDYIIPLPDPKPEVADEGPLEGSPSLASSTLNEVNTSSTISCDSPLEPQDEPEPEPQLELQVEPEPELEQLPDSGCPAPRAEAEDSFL
Assay [24] concerns the target SMAD4 (prey, CIC format) (human) (UniProt Q13485). Description: SIMPL ELISA, bait-IN/prey-CIC.
For assay [25], the target named is CXCR2 (prey, CIC format) (human) (UniProt P25025). Kind of assay: SIMPL ELISA, bait-IN/prey-CIC.

Chain of RIPK2 (bait, IN format) (O43353 whole entry): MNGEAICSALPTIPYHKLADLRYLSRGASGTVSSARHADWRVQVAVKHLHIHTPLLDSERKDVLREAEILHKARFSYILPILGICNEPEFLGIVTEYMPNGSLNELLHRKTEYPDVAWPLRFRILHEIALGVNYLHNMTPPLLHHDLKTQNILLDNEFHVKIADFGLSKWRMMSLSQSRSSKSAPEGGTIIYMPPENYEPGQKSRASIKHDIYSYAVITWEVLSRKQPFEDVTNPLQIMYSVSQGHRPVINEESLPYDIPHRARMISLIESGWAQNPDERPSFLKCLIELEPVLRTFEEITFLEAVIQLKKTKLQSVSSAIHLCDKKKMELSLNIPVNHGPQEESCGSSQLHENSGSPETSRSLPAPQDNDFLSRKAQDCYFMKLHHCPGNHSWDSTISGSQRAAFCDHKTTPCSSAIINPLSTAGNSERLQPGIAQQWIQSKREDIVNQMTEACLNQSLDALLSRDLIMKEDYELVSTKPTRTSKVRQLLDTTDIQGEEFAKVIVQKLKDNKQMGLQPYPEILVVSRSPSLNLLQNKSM
Chain of RAD23A (prey, CIC format) (human) (P54725 whole entry): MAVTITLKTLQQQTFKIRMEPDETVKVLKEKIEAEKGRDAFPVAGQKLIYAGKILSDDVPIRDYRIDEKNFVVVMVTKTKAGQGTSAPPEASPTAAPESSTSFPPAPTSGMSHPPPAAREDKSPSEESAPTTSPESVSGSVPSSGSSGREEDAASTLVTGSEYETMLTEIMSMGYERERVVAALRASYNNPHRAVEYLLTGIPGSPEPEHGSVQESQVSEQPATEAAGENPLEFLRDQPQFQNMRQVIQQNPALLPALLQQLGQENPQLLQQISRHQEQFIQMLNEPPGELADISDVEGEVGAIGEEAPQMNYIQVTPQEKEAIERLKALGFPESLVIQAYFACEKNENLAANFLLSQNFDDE
Chain of SMAD4 (prey, CIC format) (human) (Q13485 whole entry): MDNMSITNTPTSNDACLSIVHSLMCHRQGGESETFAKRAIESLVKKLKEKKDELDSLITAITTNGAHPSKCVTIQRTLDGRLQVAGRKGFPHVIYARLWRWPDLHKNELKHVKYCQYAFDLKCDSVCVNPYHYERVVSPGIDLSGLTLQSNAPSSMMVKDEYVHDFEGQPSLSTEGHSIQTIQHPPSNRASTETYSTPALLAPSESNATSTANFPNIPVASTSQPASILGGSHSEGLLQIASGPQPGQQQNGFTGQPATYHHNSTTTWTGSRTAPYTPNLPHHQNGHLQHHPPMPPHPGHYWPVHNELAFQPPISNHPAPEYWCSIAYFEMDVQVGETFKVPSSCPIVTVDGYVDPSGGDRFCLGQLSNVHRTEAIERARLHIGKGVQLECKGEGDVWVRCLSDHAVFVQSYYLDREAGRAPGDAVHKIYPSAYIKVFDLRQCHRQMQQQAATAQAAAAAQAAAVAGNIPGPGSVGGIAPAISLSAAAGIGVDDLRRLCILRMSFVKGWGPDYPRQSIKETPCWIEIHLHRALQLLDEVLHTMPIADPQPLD
Chain of CDK6 (prey, CIC format) (human) (Q00534 whole entry): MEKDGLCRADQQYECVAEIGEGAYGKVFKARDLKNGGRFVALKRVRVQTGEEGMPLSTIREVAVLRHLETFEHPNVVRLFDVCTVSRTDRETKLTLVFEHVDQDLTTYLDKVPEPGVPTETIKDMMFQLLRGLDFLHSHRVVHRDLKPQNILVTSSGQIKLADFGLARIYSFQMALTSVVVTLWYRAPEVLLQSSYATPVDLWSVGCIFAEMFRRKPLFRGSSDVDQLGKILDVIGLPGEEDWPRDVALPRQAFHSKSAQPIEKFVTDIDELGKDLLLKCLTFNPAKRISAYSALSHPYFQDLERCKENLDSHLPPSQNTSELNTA

Consider “ARF1 (bait, IN format) (from UniProt P84077 1-181)”, for which the PLU mean in assay [1] turned out to be 0.491; in assay [2], 0.301.
With “B2M (bait, IN format) (from UniProt P61769 21-119)”, the PLU mean is 0.0408 in assay [3] and 0.0155 in assay [4].
As to “BAK1 (bait, IN format) (from UniProt Q16611 1-211)”, the PLU mean in assay [5] worked out at 0.564.
In [6], “CCND3 (bait, IN format) (from UniProt P30281 1-292)” showed a PLU mean of 2.72.
Turning to “CDKN1A (bait, IN format) (from UniProt P38936 1-164)”, the figures for the PLU mean in assay [7] and in [8] were 0.516 and 0.113, respectively.
Take “DDIT3 (bait, IN format) (from UniProt P35638 1-169)”: the PLU mean in assay [9] was 0.0963; in assay [10], 0.642.
Regarding FBXA-196 (C. elegans bait, IN-V5/HA), in assay [11], the ELISA Value Replicate 1 worked out at 0.81 and the ELISA Value Replicate 2 came out at 0.51. In assay [12], the ELISA Value Replicate 1 is 1.1 and the ELISA Value Replicate 2 was 0.28.
For FBXA-215 (C. elegans bait, IN-V5/HA), in that order: 0.84, 0.58, 0.73 and 0.42.
“FGF1 (bait, IN format) (from UniProt P05230 1-155) (ligand)”: the PLU mean turned out to be 0.334 in assay [13], 0.324 in [14] and 0.374 in assay [15].
For “GRAP2 (bait, IN format) (from UniProt O75791 1-330)”, the PLU mean in [16] was 0.131.
For the substance “HIF1A (bait, IN format) (from UniProt Q16665 1-826)”, the PLU mean in [1] was 0.324.
Consider “IGF2 (bait, IN format) (from UniProt P01344 25-180) (ligand)”, for which the PLU mean in assay [17] came out at 0.943; in assay [1] it was 0.266; in assay [18] it was 0.404; in assay [19] it was 0.525.
“MAPK7 (bait, IN format) (from UniProt Q13164 1-816) (enzyme)” showed a PLU mean in assay [3] of 0.231.
“NF2 (bait, IN format) (from UniProt P35240 1-595)”: the values for the PLU mean in assay [10] and in assay [20] were 0.481 and 0.836, respectively.
Turning to “PPP3CA (bait, IN format) (from UniProt Q08209 1-521)”, the PLU mean in assay [10] was 0.245.
For the substance “PTK2/FAK (bait, IN format) (from UniProt Q05397 1-1052) (enzyme)”, in assay [21], the PLU mean turned out to be 0.599.
On to “RAF1 (bait, IN format) (from UniProt P04049 1-648) (enzyme)”, for which, in assay [5], the PLU mean is 0.578.
Take “RIPK2 (bait, IN format) (from UniProt O43353 1-540)”: the PLU mean in assay [22] worked out at 1.17; in [17], 0.555; in [23], 0.881.
“SMAD3 (bait, IN format) (from UniProt P84022 1-425)”: the PLU mean in assay [24] came to 0.399; in [25], 0.144.
Take T10E9.1 (C. elegans bait, IN-V5/HA): in assay [11], the ELISA Value Replicate 1 is 0.78 and the ELISA Value Replicate 2 is 0.55.
